Patent US20140105903A1 (Harvard, published 2014)

Assays:
[1] = target: ANG binding sites on ANG receptor expressing LNCaP cells; test: radio receptor assay, 125I-ANG on LNCaP cells at 4 C, Scatchard analysis; second site
[2] = target: ANG binding sites on ANG receptor expressing LNCaP cells; test: radio receptor assay, 125I-ANG on LNCaP cells at 4 C, Scatchard analysis
Angiogenin (human ANG) = target: T1, Angiogenin (human ANG) (human, UniProt P03950 25-147, iodine-125 label in the radio receptor assay; coupled to Sepharose in the affinity chromatography); test: method not named at this place; Example 4 names ELISA and equilibrium dialysis
T1 construct: also called free ANG
T1 sequence (P03950 25-147 limits assumed): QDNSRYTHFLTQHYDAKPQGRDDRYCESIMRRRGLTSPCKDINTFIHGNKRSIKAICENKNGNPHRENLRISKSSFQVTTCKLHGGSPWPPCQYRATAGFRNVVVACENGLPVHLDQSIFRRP

With “Angiogenin (human ANG) (from UniProt P03950 25-147) (ligand)” the Kd [1] was 170 nM and the Kd [2] was 0.45 nM.

B1: Plexin B2 peptide GTSSEYDSILVEINKRVK (SEQ ID NO: 1) (peptide)
peptide: GTSSEYDSILVEINKRVK
notes: Chemically synthesized peptide from the region of Plexin B2 between residues 316 and 449
In the case of B1, the Kd (Angiogenin (human ANG)) is reported as 200 nM.
